Experimental data published in patent publication US20240239894A1 (AstraZeneca / MedImmune, published 2024).

Tests used:
[1] = target: T1, recombinant mouse B7-H4 (tag format not stated) (mouse, UniProt Q7TSP5 25-257, limits assumed); test: SPR
T1 construct: FlagHis10 or FcHis6 in the commercial antibody ELISA; also called murine B7-H4 antigen
T1 sequence (looked up): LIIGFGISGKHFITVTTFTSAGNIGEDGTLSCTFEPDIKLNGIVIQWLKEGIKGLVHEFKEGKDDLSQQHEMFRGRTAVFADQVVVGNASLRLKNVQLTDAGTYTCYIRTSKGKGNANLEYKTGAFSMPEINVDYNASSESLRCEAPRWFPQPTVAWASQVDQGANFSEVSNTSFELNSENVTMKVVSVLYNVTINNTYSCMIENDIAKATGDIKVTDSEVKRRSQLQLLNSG

[2] = target: T1, recombinant mouse B7-H4 (tag format not …); test: SPR; remark: listed apart in the source
[3] = target: T2, recombinant human B7-H4 (tag format not stated) (human, UniProt Q7Z7D3 25-259); test: SPR, immobilized B7-H4
T2 construct: also called huB7-H4; human B7-H4 antigen
T2 sequence: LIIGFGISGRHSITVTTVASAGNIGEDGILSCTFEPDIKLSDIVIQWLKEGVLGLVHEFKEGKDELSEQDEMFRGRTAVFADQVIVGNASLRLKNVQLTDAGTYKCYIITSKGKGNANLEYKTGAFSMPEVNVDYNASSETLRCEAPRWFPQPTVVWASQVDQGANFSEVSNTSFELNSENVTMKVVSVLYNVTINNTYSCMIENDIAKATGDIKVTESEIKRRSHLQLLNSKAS

[4] = target: T3, recombinant cynomolgus monkey B7-H4 (tag format not stated) (cynomolgus monkey, UniProt A0A2K5U6P5 25-259); test: SPR, immobilized B7-H4
T3 construct: also called cyno B7-H4
T3 sequence: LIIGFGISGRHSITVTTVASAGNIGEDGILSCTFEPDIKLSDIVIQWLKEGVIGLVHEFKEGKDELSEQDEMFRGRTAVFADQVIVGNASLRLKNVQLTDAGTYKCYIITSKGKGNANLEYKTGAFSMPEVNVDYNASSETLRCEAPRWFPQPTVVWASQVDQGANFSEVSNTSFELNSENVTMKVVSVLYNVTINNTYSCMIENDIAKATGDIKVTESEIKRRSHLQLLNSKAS

[5] = target: T4, Human B7-H4 ECD-Flag-His10 (monomeric) (human, UniProt Q7Z7D3 25-259); test: KinExA 3200, Fab, N-curve analysis
T4 construct: Minimally biotinylated for KinExA; also called hB7H4-ECD-Flag-His10; B7-H4-FLAG
T4 sequence: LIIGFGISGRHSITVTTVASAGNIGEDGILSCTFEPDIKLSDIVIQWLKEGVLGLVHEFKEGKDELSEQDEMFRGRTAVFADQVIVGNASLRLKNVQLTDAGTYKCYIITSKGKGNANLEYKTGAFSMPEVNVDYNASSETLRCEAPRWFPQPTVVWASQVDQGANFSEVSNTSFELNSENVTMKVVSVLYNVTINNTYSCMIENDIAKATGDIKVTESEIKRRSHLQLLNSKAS

[6] = target: T4, Human B7-H4 ECD-Flag-His10 (monomeric); test: KinExA 3200, Fab at 5, 10 or 45 nM, 25 C, N-curve analysis
[7] = target: T5, Human B7-H4-Fc (Human B7H4 ECD, Fc_6His) (human); test: ELISA on coated human B7H4/Fc, absorbance 450 nm, [IgG] 0.006 to 100 nM
T5 construct: also called FcHis6 tagged human B7-H4
T5 sequence (Q7Z7D3 whole entry, looked up): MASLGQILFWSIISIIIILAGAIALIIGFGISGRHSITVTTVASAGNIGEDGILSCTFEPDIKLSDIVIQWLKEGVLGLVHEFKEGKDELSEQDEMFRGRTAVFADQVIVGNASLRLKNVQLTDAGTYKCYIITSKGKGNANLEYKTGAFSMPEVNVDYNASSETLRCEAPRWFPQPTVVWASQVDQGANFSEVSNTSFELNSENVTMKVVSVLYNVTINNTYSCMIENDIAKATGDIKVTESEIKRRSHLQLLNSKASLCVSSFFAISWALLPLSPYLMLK

[8] = target: T2, recombinant human B7-H4 (tag format not …); test: ELISA, Maia format mAb (GLY)
[9] = target: T1, recombinant mouse B7-H4 (tag format not …); test: ELISA, Maia format mAb (GLY)
[10] = target: T2, recombinant human B7-H4 (tag format not …); test: ELISA, Maia format mAb (GLQ)
[11] = target: T1, recombinant mouse B7-H4 (tag format not …); test: ELISA, Maia format mAb (GLQ)
human B7-H4 on cells [12] = target: T6, human B7-H4 on cells (human, UniProt Q7Z7D3 25-282); test: cell-based or functional assay
T6 sequence: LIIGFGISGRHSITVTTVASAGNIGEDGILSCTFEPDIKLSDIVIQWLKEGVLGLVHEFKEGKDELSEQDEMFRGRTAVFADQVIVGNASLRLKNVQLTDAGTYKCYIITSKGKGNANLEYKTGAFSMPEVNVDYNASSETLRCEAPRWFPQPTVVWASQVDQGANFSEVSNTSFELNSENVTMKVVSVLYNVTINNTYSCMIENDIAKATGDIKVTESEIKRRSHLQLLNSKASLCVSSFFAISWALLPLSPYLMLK

[13] = target: T2, recombinant human B7-H4 (tag format not …); test: SPR, antibody capture
human FcRn = human FcRn (human, UniProt P55899 24-297; P61769 21-119); test: SPR, steady state; steady state; human FcRn
Sequence of human FcRn (P55899 24-297 limits assumed, chain 1 of 2): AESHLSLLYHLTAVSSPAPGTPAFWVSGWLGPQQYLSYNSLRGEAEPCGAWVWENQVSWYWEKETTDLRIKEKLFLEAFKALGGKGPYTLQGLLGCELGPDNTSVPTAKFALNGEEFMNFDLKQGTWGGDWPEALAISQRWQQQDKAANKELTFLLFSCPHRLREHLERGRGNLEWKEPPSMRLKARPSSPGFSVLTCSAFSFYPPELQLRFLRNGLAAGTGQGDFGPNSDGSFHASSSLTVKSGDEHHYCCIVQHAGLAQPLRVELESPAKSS
Sequence of human FcRn (P61769 21-119 limits assumed, chain 2 of 2): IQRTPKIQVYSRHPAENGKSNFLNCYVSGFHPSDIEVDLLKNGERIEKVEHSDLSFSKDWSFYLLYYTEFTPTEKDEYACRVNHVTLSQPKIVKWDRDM

huFcγRI = huFcγRI (human, UniProt P12314 16-288); test: SPR, equilibrium KD; equilibrium KD; huFcγRI
Sequence of huFcγRI (P12314 16-288 limits assumed): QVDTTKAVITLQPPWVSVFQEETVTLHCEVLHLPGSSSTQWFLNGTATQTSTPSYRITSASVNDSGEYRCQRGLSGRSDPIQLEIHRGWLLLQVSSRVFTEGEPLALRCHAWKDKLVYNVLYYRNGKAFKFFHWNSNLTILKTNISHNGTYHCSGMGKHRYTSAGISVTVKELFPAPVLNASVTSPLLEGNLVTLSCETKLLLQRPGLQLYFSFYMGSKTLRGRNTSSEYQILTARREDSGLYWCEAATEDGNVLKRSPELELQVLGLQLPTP

[14] = target: T2, recombinant human B7-H4 (tag format not …); test: DELFIA-ELISA on immobilized recombinant human B7-H4
human B7-H4 on cells [15] = target: T6, human B7-H4 on cells; test: flow cytometry on HT29-huB7-H4 Clone 4 cells, MFI (geometric mean)
human B7-H4 on cells [16] = target: T6, human B7-H4 on cells; test: flow cytometry on HT29-huB7-H4 Clone 26 cells, MFI (geometric mean)
human B7-H4 on cells [17] = target: T6, human B7-H4 on cells; test: flow cytometry on MX-1 cells (endogenous human B7-H4), MFI (geometric mean)
human B7-H4 on cells [18] = target: T6, human B7-H4 on cells; test: flow cytometry on MDA-MB-468 cells (endogenous human B7-H4), MFI (geometric mean)
murine B7-H4 on cells = target: T7, murine B7-H4 on cells (mouse, UniProt Q7TSP5 25-257); test: flow cytometry on HEK293 JI TREX cells stably expressing murine B7-H4, MFI (geometric mean)
T7 construct: whole, on cells; also called muB7-H4
T7 sequence (looked up): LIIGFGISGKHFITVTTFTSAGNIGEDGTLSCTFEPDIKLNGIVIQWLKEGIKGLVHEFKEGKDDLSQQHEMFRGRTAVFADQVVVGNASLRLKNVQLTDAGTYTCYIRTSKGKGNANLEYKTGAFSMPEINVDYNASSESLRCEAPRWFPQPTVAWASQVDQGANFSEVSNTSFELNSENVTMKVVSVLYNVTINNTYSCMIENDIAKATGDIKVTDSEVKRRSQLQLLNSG

[19] = target: T8, cynomolgus monkey B7-H4 on cells (cynomolgus monkey, UniProt A0A2K5U6P5 25-282); test: flow cytometry on HEK293 JI TREX cells stably expressing cynomolgus monkey B7-H4, MFI (geometric mean)
T8 construct: whole, on cells; On HEK 293 cells; also called cynoB7-H4
T8 sequence: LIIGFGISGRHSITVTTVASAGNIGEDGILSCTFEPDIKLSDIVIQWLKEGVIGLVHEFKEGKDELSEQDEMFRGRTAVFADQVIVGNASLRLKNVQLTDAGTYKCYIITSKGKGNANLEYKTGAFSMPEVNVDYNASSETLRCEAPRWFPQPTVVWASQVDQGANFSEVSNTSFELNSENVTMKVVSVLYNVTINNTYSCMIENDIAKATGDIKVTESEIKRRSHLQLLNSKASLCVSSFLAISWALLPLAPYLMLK

B1: E02_GL Fab (Fab, V domains shown)
VH: QVQLQQWGAGLLKPSETLSLACTVYGGSFSGYYWNWIRQPPGKGLEWIGEINHSGSTSYNPSLKSRVTISVDTSKNQFSLKLSSVTAADTAVYYCARVLYNWNVDSWGQGTLVTVSS
VL: DIQMTQSPSSLSASVGDRVTITCRASQDIRNDVGWYQQKPGKAPKRLIYAASRLQSGVPSRFSGSGSGTEFTLTISSLQPEDFATYYCLQHNSYPRTFGQGTKVEIK
notes: Fab of E02-GL; also called EO2_GL Fab; E02-INT Fab
B1 was tested, and the “fold lower affinity than for human B7-H4 antigen” value [1] was about 100 fold, the Kd [2] was 405 nM and the Kd [3] was 3.7 nM. It also gave a Kd [4] of 3.94 nM, a Kd [5] of 1.21 nM and a Kd [6] of 1.2 nM.

B2: E02-GL (ZY0EQD_E02, germlined) (antibody, V domains shown)
VH: QVQLQQWGAGLLKPSETLSLACTVYGGSFSGYYWNWIRQPPGKGLEWIGEINHSGSTSYNPSLKSRVTISVDTSKNQFSLKLSSVTAADTAVYYCARVLYNWNVDSWGQGTLVTVSS
VL: DIQMTQSPSSLSASVGDRVTITCRASQDIRNDVGWYQQKPGKAPKRLIYAASRLQSGVPSRFSGSGSGTEFTLTISSLQPEDFATYYCLQHNSYPRTFGQGTKVEIK
notes: AF647-labelled in flow cytometry; also called EQD-E02_GL; ZY0EQD-E02-GL
With B2 the “EC50 (read off the curve)” value [7] was about 0.5 nM.

B3: E02-GLY-maia (antibody, human IgG1, kappa, V domains shown)
VH: QVQLQQWGAGLLKPSETLSLACTVYGGSFSGYYWNWIRQPPGKGLEWIGEIYHSGSTSYNPSLKSRVTISVDTSKNQFSLKLSSVTAADTAVYYCARVLYNWNVDSWGQGTLVTVSS
VL: DIQMTQSPSSLSASVGDRVTITCRASQDIRNDVGWYQQKPGKAPKRLIYAASRLQSGVPSRFSGSGSGTEFTLTISSLQPEDFATYYCLQHNSYPRTFGQGTKVEIKR
notes: Germlined with a Y substitution, Maia format
B3: binds [8]; binds [9].

B4: E02-GLQ-maia (antibody, human IgG1, kappa, V domains shown)
VH: QVQLQQWGAGLLKPSETLSLACTVYGGSFSGYYWNWIRQPPGKGLEWIGEIQHSGSTSYNPSLKSRVTISVDTSKNQFSLKLSSVTAADTAVYYCARVLYNWNVDSWGQGTLVTVSS
VL: DIQMTQSPSSLSASVGDRVTITCRASQDIRNDVGWYQQKPGKAPKRLIYAASRLQSGVPSRFSGSGSGTEFTLTISSLQPEDFATYYCLQHNSYPRTFGQGTKVEIKR
notes: Germlined with a Q substitution, Maia format
B4: binds [10]; binds [11].

B5: E02-GL-SG3932 (antibody, human IgG1, kappa)
heavy: not shown
light: DIQMTQSPSSLSASVGDRVTITCRASQDIRNDVGWYQQKPGKAPKRLIYAASRLQSGVPSRFSGSGSGTEFTLTISSLQPEDFATYYCLQHNSYPRTFGQGTKVEIKRTVAAPSVFIFPPSDEQLKSGTASVVCLLNNFYPREAKVQWKVDNALQSGNSQESVTEQDSKDSTYSLSSTLTLSKADYEKHKVYACEVTHQGLSSPVTKSFNRGEC
modifications: SG3932 on native cysteines (DAR about 8 for the whole antibody); SG3932 (mal-PEG8-val-ala linker with TOP1i warhead) on native cysteines through a thiosuccinimide linkage, about 8 drugs per antibody
notes: also called E02-INT-SG3932; B7-H4 targeting TOP1i-ADC; copies: 2 + 2
B5 was tested, and the “IC50, cytotoxicity (CellTiter-Glo) on HT29-huB7-H4 Clone 26” value (human B7-H4 on cells [12]) was 0.036 g/mL (as printed; probably µg/mL), the “IC50, cytotoxicity (CellTiter-Glo) on MX-1” value (human B7-H4 on cells [12]) was 0.029 µg/mL and the “IC50, cytotoxicity (CellTiter-Glo, 6 days) on human B7-H4 transfected Ad293 cells” value (human B7-H4 on cells [12]) was 0.0533 µg/mL. The Kd [13] was 29.3 nM, the koff [13] was 0.0028 s⁻¹ and the kon [13] was 95500 M⁻¹ s⁻¹. For the same binder, the Kd (human FcRn) was 4360 nM, the Kd (huFcγRI) was 4.35 nM and the EC50 [14] was 1.71 nM. For the same binder, the “EC50 (read off the curve)” value (human B7-H4 on cells [15]) was about 0.07 µg/mL, the “EC50 (read off the curve)” value (human B7-H4 on cells [16]) was about 0.1 µg/mL and the “EC50 (read off the curve)” value (human B7-H4 on cells [17]) was about 0.1 µg/mL. The “EC50 (read off the curve)” value (human B7-H4 on cells [18]) was about 0.08 µg/mL.

B6: E02-INT (antibody intermediate of E02-GL-SG3932) (antibody, human IgG1, kappa)
heavy: not shown
light: DIQMTQSPSSLSASVGDRVTITCRASQDIRNDVGWYQQKPGKAPKRLIYAASRLQSGVPSRFSGSGSGTEFTLTISSLQPEDFATYYCLQHNSYPRTFGQGTKVEIKRTVAAPSVFIFPPSDEQLKSGTASVVCLLNNFYPREAKVQWKVDNALQSGNSQESVTEQDSKDSTYSLSSTLTLSKADYEKHKVYACEVTHQGLSSPVTKSFNRGEC
notes: also called E02-GL antibody; antibody intermediate E02-INT
For B6, the Kd [13] was 31.1 nM, the koff [13] was 0.00292 s⁻¹ and the kon [13] was 93800 M⁻¹ s⁻¹. The EC50 [14] was 1.98 nM, the “EC50 (read off the curve)” value (human B7-H4 on cells [15]) was about 0.05 µg/mL and the “EC50 (read off the curve)” value (human B7-H4 on cells [16]) was about 0.07 µg/mL. For the same binder, the “EC50 (read off the curve)” value (human B7-H4 on cells [17]) was about 0.1 µg/mL, the “EC50 (read off the curve)” value (human B7-H4 on cells [18]) was about 0.08 µg/mL and the “EC50 (read off the curve)” value (murine B7-H4 on cells) was about 0.2 µg/mL. For the same binder, the “EC50 (read off the curve)” value [19] was about 0.4 µg/mL.
